Assay results: the supplement of paper PMC9112550, “Optimization of the antimicrobial peptide Bac7 by deep mutational scanning” (BMC Biology, 2022)

Tested on: Escherichia coli TOP10
Assay: shrunken log2 fold change of peptide-encoding DNA abundance (4.5 h post-induction vs induction); higher = less antimicrobial activity (less host growth inhibition)
Details: time post-induction: 4.5 h; library: site-saturation at positions 5, 18, 19, 20
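Further: peptides expressed intracellularly from a pBAD plasmid library in pooled LB shake-flask culture, induced with 0.3% L-arabinose, DNA abundance read by NGS, three biological replicates, DESeq2 with apeglm shrinkage.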

Sequence	shrunken log2 fold change
RRIRKRPPRLPRPRPRPTYCPRP	0.135
RRIRFRPPRLPRPRPRPMECPRP	-0.0638
RRIRKRPPRLPRPRPRPRPNPRP	0.42
RRIRHRPPRLPRPRPRPILTPRP	-0.201
RRIRDRPPRLPRPRPRPHPVPRP	-0.0422
RRIRRRPPRLPRPRPRPPITPRP	0.13
RRIRERPPRLPRPRPRPLSKPRP	-0.579
RRIRGRPPRLPRPRPRPYWFPRP	0.105
RRIRVRPPRLPRPRPRPDTGPRP	-0.00804
RRIRFRPPRLPRPRPRPIFGPRP	0.449
RRIRPRPPRLPRPRPRPIRNPRP	-0.0919
RRIRERPPRLPRPRPRPKYPPRP	-0.00672
RRIRKRPPRLPRPRPRPMYWPRP	-0.111
RRIRVRPPRLPRPRPRPFVWPRP	-0.03
RRIRTRPPRLPRPRPRPYLGPRP	-0.00172
RRIRMRPPRLPRPRPRPGIIPRP	-0.0597
RRIRFRPPRLPRPRPRPQLSPRP	-0.0854
RRIRPRPPRLPRPRPRPCKEPRP	-0.0274
RRIRWRPPRLPRPRPRPWPEPRP	0.167
RRIRDRPPRLPRPRPRPDVPPRP	0.221
RRIRSRPPRLPRPRPRPHTLPRP	-0.116
RRIRTRPPRLPRPRPRPQGCPRP	0.0515

Sequence	shrunken log2 fold change
RRIRCRPPRLPRPRPRPIFMPRP	-0.269
RRIRRRPPRLPRPRPRPEVIPRP	-0.0658
RRIRTRPPRLPRPRPRPYTAPRP	-0.389
RRIRQRPPRLPRPRPRPAQYPRP	-0.0388
RRIRVRPPRLPRPRPRPSTMPRP	-0.213
RRIRWRPPRLPRPRPRPKKQPRP	0.176
RRIRCRPPRLPRPRPRPRIQPRP	-0.196
RRIRKRPPRLPRPRPRPQSFPRP	0.327
RRIRVRPPRLPRPRPRPTIGPRP	0.178
RRIRQRPPRLPRPRPRPRYIPRP	-0.706
RRIRCRPPRLPRPRPRPVYAPRP	-0.515
RRIRLRPPRLPRPRPRPQGVPRP	-0.0316
RRIRDRPPRLPRPRPRPFTCPRP	-0.00884
RRIRMRPPRLPRPRPRPMQLPRP	0.33
RRIRWRPPRLPRPRPRPMLYPRP	0.0136
RRIRFRPPRLPRPRPRPSIQPRP	-0.0528
RRIRPRPPRLPRPRPRPYNIPRP	-1.66
RRIRFRPPRLPRPRPRPPDMPRP	-0.147
RRIRFRPPRLPRPRPRPQTWPRP	-0.743
RRIRWRPPRLPRPRPRPLENPRP	0.0135
RRIRDRPPRLPRPRPRPVVFPRP	0.457
RRIRCRPPRLPRPRPRPVGSPRP	0.0443

Sequence	shrunken log2 fold change
RRIRQRPPRLPRPRPRPYVSPRP	-0.0823
RRIRYRPPRLPRPRPRPHGYPRP	-0.0146
RRIRQRPPRLPRPRPRPHFGPRP	-0.0794
RRIRRRPPRLPRPRPRPMRKPRP	0.58
RRIRWRPPRLPRPRPRPELAPRP	0.758
RRIRQRPPRLPRPRPRPNVVPRP	0.0298
RRIRCRPPRLPRPRPRPMCGPRP	-0.0984
RRIRARPPRLPRPRPRPDMHPRP	-0.00915
RRIRHRPPRLPRPRPRPEHCPRP	0.0155
RRIRARPPRLPRPRPRPRQFPRP	0.32
RRIRYRPPRLPRPRPRPGGLPRP	3.02
RRIRRRPPRLPRPRPRPMIIPRP	-0.171
RRIRQRPPRLPRPRPRPRWKPRP	0.552
RRIRPRPPRLPRPRPRPRRKPRP	0.166
RRIRVRPPRLPRPRPRPRVEPRP	0.558
RRIRIRPPRLPRPRPRPNAMPRP	-0.0812
RRIRLRPPRLPRPRPRPMMMPRP	-0.114
RRIRERPPRLPRPRPRPKIGPRP	-0.0947
RRIRDRPPRLPRPRPRPTKHPRP	-0.0699
RRIRKRPPRLPRPRPRPEGWPRP	1.46
RRIRHRPPRLPRPRPRPLKKPRP	-0.157
RRIRTRPPRLPRPRPRPEDWPRP	0.386

Sequence	shrunken log2 fold change
RRIRVRPPRLPRPRPRPMACPRP	-0.147
RRIRMRPPRLPRPRPRPCSPPRP	0.0324
RRIRDRPPRLPRPRPRPPMEPRP	-0.0667
RRIRFRPPRLPRPRPRPIKQPRP	-0.0488
RRIRVRPPRLPRPRPRPFWWPRP	0.343
RRIRCRPPRLPRPRPRPIADPRP	-0.107
RRIRWRPPRLPRPRPRPVDEPRP	0.0343
RRIRNRPPRLPRPRPRPEWPPRP	0.178
RRIRFRPPRLPRPRPRPLSGPRP	-0.233
RRIRMRPPRLPRPRPRPMFMPRP	0.0101
RRIRNRPPRLPRPRPRPPTEPRP	0.389
RRIRYRPPRLPRPRPRPHIWPRP	-0.272
RRIRRRPPRLPRPRPRPETSPRP	0.4
RRIRTRPPRLPRPRPRPDRIPRP	0.00097
RRIRIRPPRLPRPRPRPNQYPRP	-0.681
RRIRTRPPRLPRPRPRPFIDPRP	-1.15
RRIRPRPPRLPRPRPRPAMKPRP	0.162
RRIRKRPPRLPRPRPRPFRAPRP	0.201
RRIRCRPPRLPRPRPRPCHIPRP	-0.0941
RRIRNRPPRLPRPRPRPCQSPRP	-0.212
RRIRGRPPRLPRPRPRPFFWPRP	0.499
RRIRMRPPRLPRPRPRPKFQPRP	0.549

Sequence	shrunken log2 fold change
RRIRSRPPRLPRPRPRPINGPRP	-0.00748
RRIRNRPPRLPRPRPRPRQPPRP	0.428
RRIRSRPPRLPRPRPRPAHRPRP	-0.0259
RRIRGRPPRLPRPRPRPDVFPRP	0.438
RRIRNRPPRLPRPRPRPYKIPRP	-0.0214
RRIRCRPPRLPRPRPRPYVEPRP	-0.942
RRIRNRPPRLPRPRPRPMSFPRP	-0.0524
RRIRPRPPRLPRPRPRPMWVPRP	-0.138
RRIRWRPPRLPRPRPRPCKIPRP	-0.114
RRIRSRPPRLPRPRPRPWRSPRP	0.00174
RRIRYRPPRLPRPRPRPIPMPRP	-0.807
RRIRGRPPRLPRPRPRPTAMPRP	2.78
RRIRRRPPRLPRPRPRPMCSPRP	-0.0511
RRIRVRPPRLPRPRPRPWPIPRP	-0.0661
RRIRPRPPRLPRPRPRPSNAPRP	0.055
RRIRVRPPRLPRPRPRPDKLPRP	-0.0511
RRIRFRPPRLPRPRPRPHRSPRP	-0.222
RRIRARPPRLPRPRPRPPSTPRP	0.563
RRIRQRPPRLPRPRPRPSCIPRP	-0.238
RRIRQRPPRLPRPRPRPITRPRP	0.0297
RRIRGRPPRLPRPRPRPKRCPRP	0.788
